This passage reports ET-1 release from HPAECs induced by HMGB1 (40 ng/ml), ELISA of the culture supernatant, with anti-RAGE antibody (ab3611; Abcam; 1 μg/ml) co-treated results from publication PMC4248446.

This assay addresses receptor for advanced glycation end products (RAGE) (human (endogenous in HPAEC)) (UniProt Q15109).
UniProt Q15109, sequence (Q15109 23-404): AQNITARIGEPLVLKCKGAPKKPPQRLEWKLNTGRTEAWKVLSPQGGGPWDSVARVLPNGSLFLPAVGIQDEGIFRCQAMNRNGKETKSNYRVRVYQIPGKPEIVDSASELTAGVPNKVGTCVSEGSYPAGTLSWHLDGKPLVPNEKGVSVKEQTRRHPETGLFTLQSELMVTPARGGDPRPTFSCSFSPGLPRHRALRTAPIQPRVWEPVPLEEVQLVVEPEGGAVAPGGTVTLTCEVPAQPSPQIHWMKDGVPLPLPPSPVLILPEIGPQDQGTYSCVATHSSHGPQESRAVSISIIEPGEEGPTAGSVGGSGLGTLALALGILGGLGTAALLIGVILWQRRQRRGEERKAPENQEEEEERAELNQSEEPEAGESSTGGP

Regarding “recombinant high mobility group box-1 (HMGB1) (from UniProt P09429 1-215) (ligand)”, the ET-1 release from HPAECs induced by HMGB1 (40 ng/ml), ELISA of the culture supernatant, with anti-RAGE antibody (ab3611; Abcam; 1 μg/ml) co-treated turned out to be 349 pg/mL.
